According to publication PMC7201828, “Comparison of Inhibitor and Substrate Selectivity between Rodent and Human Vascular Adhesion Protein-1” (Mediators of Inflammation, 2020):

What was measured:
Experiment in all cases: purified protein, by the assay type
[1] = substrate: NCc1ccccc1; details: pH 7.4, 37.0 °C
Experimental: (§1) The enzymatic activity of recombinant VAP-1 and inhibitor potency was determined using a variation of the fluorometric assay for measuring hydrogen peroxide formation [22]. Briefly, the assay measures the H2O2 generated during the oxidative deamination of an amine substrate (BA for inhibition purposes) by converting Amplex® Red to the fluorescent product, resorufin, via horseradish peroxidase (HRP). […] Stock solutions of Amplex Red (1 mM), HRP (10 U/mL), the substrates (200 μM BA for inhibition), and inhibitor were prepared in reaction buffer and added to the appropriate wells, that the final concentration in each well was 0.05 mM Amplex Red, 0.5 U/mL HRP, and 50 μM BA (saturating condition) in a total reaction volume of 0.1 mL.
(§2) Standard curves were prepared for each plate by serially diluting H2O2 in reaction buffer with equivalent concentrations of Amplex Red and HRP. A 10 μM solution of resorufin was prepared in reaction buffer and was dispensed in duplicate as the positive control for maximum fluorescence. Plates were incubated for 30 minutes at 37°C, protected from light under foil to minimize the resorufin artifactually formed when Amplex Red is exposed to light [28]. The plate was read at 530/35 emission and 590/35 excitation. The mean fluorescence of the background was subtracted from the mean fluorescence of the inhibitor concentration in the presence of BA. The percent control was calculated using equation (1). […] (1) %control=average fluorescence with inhibitor−background/average fluorescence of reaction without inhibitor−background×100, (2) %inhibition=100−%control.
(§3) Both substrates were incubated with recombinant VAP-1 in triplicate on three separate plates.

[2] = substrate: NCCc1ccc(O)cc1; details: pH 7.4, 37.0 °C
Experimental: as §1, §2, §3

[3] = substrate: NCCc1ccccc1; details: other: recombinant human VAP-1, substrate; pH 7.4; 37.0 °C
Experimental: as §1, §2, §3

[4] = other: recombinant mouse VAP-1, substrate
[5] = other: recombinant rat VAP-1, substrate
[6] = other: recombinant human VAP-1, substrate

B1: recombinant mouse VAP-1 (Mus musculus) (protein)
chain: RSGDGGGLSQPLHCPSVLPSVQPRTHPSQSQPFADLSPEELTAVMSFLTKHLGPGLVDAAQARPSDNCVFSVELQLPAKAAALAHLDRGGPPPVREALAIIFFGGQPKPNVSELVVGPLPHPSYMRDVTVERHGGPLPYYRRPVLDREYQDIEEMIFHRELPQASGLLHHCCFYKHQGQNLLTMTTAPRGLQSGDRATWFGLYYNLSGAGFYPHPIGLELLIDHKALDPALWTIQKVFYQGRYYESLTQLEDQFEAGLVNVVLVPNNGTGGSWSLKSSVPPGPAPPLQFHPQGPRFSVQGSQVSSSLWAFSFGLGAFSGPRIFDIRFQGERVAYEISVQEAIALYGGNSPASMSTCYVDGSFGIGKYSTPLIRGVDCPYLATYVDWHFLLESQAPKTLRDAFCVFEQNQGLPLRRHHSDFYSHYFGGVVGTVLVVRSVSTLLNYDYIWDMVFHPNGAIEVKFHATGYISSAFFFGAGEKFGNRVGAHTLGTVHTHSAHFKVDLDVAGLKNWAWAEDMAFVPTIVPWQPEYQMQRLQVTRKLLETEEEAAFPLGGATPRYLYLASNHSNKWGHRRGYRIQILSFAGKPLPQESPIEKAFTWGRYHLAVTQRKEEEPSSSSIFNQNDPWTPTVNFTDFISNETIAGEDLVAWVTAGFLHIPHAEDIPNTVTAGNSVGFFLRPYNFFDEDPSFHSADSIYFREGQDATACEVNPLACLSQTATCAPEIPAFSHGGFAYRDN
Km [1, 4]: 13.1 ± 11.4 µM | Vmax [1, 4]: 20.1 µmol/min/mg

B2: recombinant rat VAP-1 (Rattus norvegicus) (protein)
chain: RSGDGGRLSQPLHCPSVLPSVQPQTHPGQSQPFADLSPEELTAVMSFLIKHLGPGLVDAAQARPSDNCVFSVELQLPAKAAALAHLDRGGPPPVREALAIIFFGGQPKPNVSELVVGPLPHPSYMRDVTVERHGGPLPYYRRPVLTREYQDIQEMIFHRELPQASGLLHHCCFYKRQGHNLLKMTTAPRGLQSGDRATWFGIYYNLSGAGFYPHPIGLELLVDHKALDPALWTIQKVFYQGRYYESLTQLEDMFEAGLVNVVLVPDNGTGGSWSLKSSVPPGRAPPLQFHPEGPRFSVQGSQVRSSLWAFSFGLGAFSGPRIFDIRFQGERVAYEISVQEAIALYGGNSPASMSTCYMDGSFGIGKYSTPLTRGVDCPYLATYVDWHFLLESQTPKTLRDAFCVFEQNQGLPLRRHHSDFYSHYFGGVVETVLVVRSVATLLNYDYVWDMVFHSNGAIEVKFHATGYITSAFFFGAGEKFGNRVAEHTLGTVHTHNAHFKVDLDVAGLKNWAWAEDLAFVPMNVPWQPEFQMQRLQVTRKLLETEEEAAFPLGNATPRYLYLASNHSNKWGHRRGYRIQILSFAGKPLPQESPIEKAFTWGRYHLAVTQRKEEEPSSSSIYNQNDPWTPTVDFTDFISNETIAGEDLVAWVTAGFLHIPHAEDIPNTVTVGNGVGFFLRPYNFFDEDPSFYSPDSIYFRKDQDVTDCEVNSLACLSQTANCVPDLPAFSHGGFTYK
Km [1, 5]: 4.38 ± 0.361 µM | Vmax [1, 5]: 20.2 µmol/min/mg | Km [2, 5]: 8.31 µM | Vmax [2, 5]: 1.19 μmoles/min/mg prot

B3: recombinant human VAP-1 (Homo sapiens) (protein)
chain: GRGGDGGEPSQLPHCPSVSPSAQPWTHPGQSQLFADLSREELTAVMRFLTQRLGPGLVDAAQARPSDNCVFSVELQLPPKAAALAHLDRGSPPPAREALAIVFFGRQPQPNVSELVVGPLPHPSYMRDVTVERHGGPLPYHRRPVLFQEYLDIDQMIFNRELPQASGLLHHCCFYKHRGRNLVTMTTAPRGLQSGDRATWFGLYYNISGAGFFLHHVGLELLVNHKALDPARWTIQKVFYQGRYYDSLAQLEAQFEAGLVNVVLIPDNGTGGSWSLKSPVPPGPAPPLQFYPQGPRFSVQGSRVASSLWTFSFGLGAFSGPRIFDVRFQGERLVYEISLQEALAIYGGNSPAAMTTRYVDGGFGMGKYTTPLTRGVDCPYLATYVDWHFLLESQAPKTIRDAFCVFEQNQGLPLRRHHSDLYSHYFGGLAETVLVVRSMSTLLNYDYVWDTVFHPSGAIEIRFYATGYISSAFLFGATGKYGNQVSEHTLGTVHTHSAHFKVDLDVAGLENWVWAEDMVFVPMAVPWSPEHQLQRLQVTRKLLEMEEQAAFLVGSATPRYLYLASNHSNKWGHPRGYRIQMLSFAGEPLPQNSSMARGFSWERYQLAVTQRKEEEPSSSSVFNQNDPWAPTVDFSDFINNETIAGKDLVAWVTAGFLHIPHAEDIPNTVTVGNGVGFFLRPYNFFDEDPSFYSADSIYFRGDQDAGACEVNPLACLPQAAACAPDLPAFSHGGFSHN
Km [3]: 5510 ± 5510 µM | Vmax [3]: 7.15 µmol/min/mg | Km [1, 6]: 45.3 ± 50.7 µM | Vmax [1, 6]: 11.2 µmol/min/mg | Km [2, 6]: 299 µM | Vmax [2, 6]: 0.40 μmoles/min/mg prot
